{"source": "paper PMC3269305", "about": "(Journal of Molecular Biology, 2011)", "molecular_target": "human eukaryotic translation initiation factor eIF4E (human, UniProt P06730 1-217)", "sequence (P06730 whole entry, the tested form may be a part)": "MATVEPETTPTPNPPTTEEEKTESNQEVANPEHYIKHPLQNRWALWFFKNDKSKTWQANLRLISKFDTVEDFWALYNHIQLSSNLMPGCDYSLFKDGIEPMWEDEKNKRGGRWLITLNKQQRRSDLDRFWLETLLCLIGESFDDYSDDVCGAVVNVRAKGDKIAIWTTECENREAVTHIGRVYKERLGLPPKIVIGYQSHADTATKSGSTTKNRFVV", "test": "crystal structure", "data": [{"binder": "PGGTRIIYDRKFLMECRNSP", "note": "[4EBP1 peptide (eIF4E binding site of human 4EBP1, residues 47-66)]", "values": [{"measurement": "binding result", "result": "binds"}]}]}
